Source: patent US20140274782A1, “AFFINITY REAGENTS AND METHODS FOR DETECTION, PURIFICATION, AND PROTEOMIC ANALYSIS OF METHYLATED PROTEINS” (The Board of Trustees of the Leland Stanford Junior …, priority 2013, published 2014)

T1: G9a and GLP (Homo sapiens, UniProt Q96KQ7+Q9H9B1)
T1 sequence (Q96KQ7 2-1210 limits assumed): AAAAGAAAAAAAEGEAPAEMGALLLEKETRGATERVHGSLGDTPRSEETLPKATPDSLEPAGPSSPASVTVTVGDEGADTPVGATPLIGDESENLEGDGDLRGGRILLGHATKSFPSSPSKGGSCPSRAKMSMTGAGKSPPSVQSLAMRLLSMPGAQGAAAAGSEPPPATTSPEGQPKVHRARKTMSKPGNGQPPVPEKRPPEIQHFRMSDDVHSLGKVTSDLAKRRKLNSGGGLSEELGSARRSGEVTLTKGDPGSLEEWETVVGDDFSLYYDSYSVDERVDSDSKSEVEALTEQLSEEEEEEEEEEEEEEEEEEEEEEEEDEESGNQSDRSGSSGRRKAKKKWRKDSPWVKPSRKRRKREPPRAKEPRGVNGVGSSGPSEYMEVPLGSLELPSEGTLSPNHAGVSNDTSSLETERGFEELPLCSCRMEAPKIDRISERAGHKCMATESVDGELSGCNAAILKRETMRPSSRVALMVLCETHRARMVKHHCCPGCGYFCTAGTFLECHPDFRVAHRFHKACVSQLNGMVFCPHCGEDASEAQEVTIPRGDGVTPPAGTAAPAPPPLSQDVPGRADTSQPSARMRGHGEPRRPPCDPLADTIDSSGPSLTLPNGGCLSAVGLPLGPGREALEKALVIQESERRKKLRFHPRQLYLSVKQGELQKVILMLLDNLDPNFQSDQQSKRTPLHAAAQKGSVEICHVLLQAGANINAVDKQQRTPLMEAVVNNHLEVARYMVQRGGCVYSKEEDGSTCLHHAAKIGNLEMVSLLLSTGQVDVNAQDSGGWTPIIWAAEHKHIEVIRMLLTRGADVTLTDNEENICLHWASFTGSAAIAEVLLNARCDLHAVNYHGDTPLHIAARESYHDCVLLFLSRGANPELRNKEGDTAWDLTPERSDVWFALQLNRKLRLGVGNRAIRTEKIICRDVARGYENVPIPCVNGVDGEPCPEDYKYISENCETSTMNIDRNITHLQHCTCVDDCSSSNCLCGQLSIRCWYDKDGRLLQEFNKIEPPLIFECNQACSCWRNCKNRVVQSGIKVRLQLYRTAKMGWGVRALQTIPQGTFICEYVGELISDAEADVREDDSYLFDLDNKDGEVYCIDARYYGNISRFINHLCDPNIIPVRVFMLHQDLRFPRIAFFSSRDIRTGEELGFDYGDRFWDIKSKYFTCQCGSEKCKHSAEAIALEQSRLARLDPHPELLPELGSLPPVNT
T1 sequence (Q9H9B1 2-1298 limits assumed): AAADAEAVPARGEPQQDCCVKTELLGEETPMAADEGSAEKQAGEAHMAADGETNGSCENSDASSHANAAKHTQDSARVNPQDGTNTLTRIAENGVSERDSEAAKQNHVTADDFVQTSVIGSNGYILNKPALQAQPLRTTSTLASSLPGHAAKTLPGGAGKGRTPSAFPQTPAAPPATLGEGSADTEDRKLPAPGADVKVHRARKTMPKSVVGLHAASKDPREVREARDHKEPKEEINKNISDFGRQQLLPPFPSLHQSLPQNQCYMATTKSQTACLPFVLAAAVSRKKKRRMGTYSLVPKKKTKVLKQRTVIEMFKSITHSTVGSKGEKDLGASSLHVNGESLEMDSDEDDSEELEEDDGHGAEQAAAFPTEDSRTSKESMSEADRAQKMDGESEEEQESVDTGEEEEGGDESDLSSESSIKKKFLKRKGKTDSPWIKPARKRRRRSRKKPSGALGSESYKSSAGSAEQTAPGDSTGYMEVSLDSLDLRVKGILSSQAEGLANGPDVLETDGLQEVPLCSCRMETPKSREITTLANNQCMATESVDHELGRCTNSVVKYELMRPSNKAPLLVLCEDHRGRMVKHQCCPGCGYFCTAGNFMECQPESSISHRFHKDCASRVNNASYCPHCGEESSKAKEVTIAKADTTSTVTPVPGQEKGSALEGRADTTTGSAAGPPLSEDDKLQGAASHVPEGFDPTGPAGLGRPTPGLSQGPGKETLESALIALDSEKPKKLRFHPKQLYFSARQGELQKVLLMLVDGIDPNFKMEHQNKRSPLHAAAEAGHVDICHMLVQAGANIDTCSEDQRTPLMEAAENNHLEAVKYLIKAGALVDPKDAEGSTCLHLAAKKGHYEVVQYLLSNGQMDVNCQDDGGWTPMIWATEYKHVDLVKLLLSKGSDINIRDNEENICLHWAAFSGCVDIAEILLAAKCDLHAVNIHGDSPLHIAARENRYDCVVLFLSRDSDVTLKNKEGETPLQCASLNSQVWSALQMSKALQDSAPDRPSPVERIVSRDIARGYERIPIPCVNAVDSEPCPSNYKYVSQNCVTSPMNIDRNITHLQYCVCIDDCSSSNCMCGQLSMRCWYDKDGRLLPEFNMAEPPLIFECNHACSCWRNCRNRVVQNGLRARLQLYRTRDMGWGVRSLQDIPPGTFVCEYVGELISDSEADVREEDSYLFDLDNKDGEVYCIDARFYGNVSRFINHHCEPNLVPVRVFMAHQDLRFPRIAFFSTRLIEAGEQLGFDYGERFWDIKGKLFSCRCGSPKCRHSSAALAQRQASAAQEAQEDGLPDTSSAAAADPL


Experiments:
3×MBT domain of L3MBTL1 = assay: Triple SILAC pull-down, 3xMBT/3xMBTD355N ratio (cytoplasmic, nuclear and chromatin fractions of 293T cells); assay type: binding, human; conditions: SILAC ratio 3xMBT vs 3xMBTD355N pull-down, 293T cells, all values in log base 2; for 3xMBT/D355N UNC Heavy: experiment with UNC0638 in heavy SILAC media; for 3xMBT/D355N UNC Light: experiment with UNC0638 in light SILAC media;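 for all read-outs here: proteins quantified with MaxQuant, requiring at least two unique peptides and quantification in both label directions, normalized to the mean of proteins from a digested loading control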
G9a and GLP = biological target: T1, G9a and GLP; assay: Triple SILAC pull-down after UNC0638 treatment of 293T cells, DMSO/UNC0638 ratio of protein captured by 3×MBT; assay type: cell-based; parameters: endogenous in cells; host or cells: HEK 293T; conditions: all values in log base 2; for Relative to UNC0638 UNC Heavy / Relative to UNC0638 UNC Light: SILAC ratio DMSO relative to UNC0638, pull-down with 3xMBT; for Relative to UNC0638 UNC Heavy: UNC0638 in heavy SILAC media; for Relative to UNC0638 UNC Light: UNC0638 in light SILAC media; for Relative to UNC0638 Average: average of UNC Light and UNC Heavy experiments;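 for all read-outs here: mass spectrometry (Q-Exactive) SILAC quantitation, DMSO/UNC0638 ratio computed after subtracting 3×MBTD355N mutant pull-down background, only proteins with at least twofold 3×MBT over mutant signal considered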

Relative to UNC0638 UNC Heavy (G9a and GLP) [log base 2] | Relative to UNC0638 UNC Light (G9a and GLP) [log base 2] | Relative to UNC0638 Average (G9a and GLP) [log base 2] | Molecule | 3xMBT/D355N UNC Heavy (3×MBT domain of L3MBTL1) [log base 2] | 3xMBT/D355N UNC Light (3×MBT domain of L3MBTL1) [log base 2]
0.43 | −0.49 | −0.03 | DDX49 (protein, UniProt Q9Y6V7 1-483, looked up) Probable ATP-dependent RNA …: MAGFAELGLSSWLVEQCRQLGLKQPTPVQLGCIPAILEGRDCLGCAKTGSGKTAAFVLPILQKLSEDPYGIFCLVLTPTRELAYQIAEQFRVLGKPLGLKDCIIVGGMDMVAQALELSRKPHVVIATPGRLADHLRSSNTFSIKKIRFLVMDEADRLLEQGCTDFTVDLEAILAAVPARRQTLLFSATLTDTLRELQGLATNQPFFWEAQAPVSTVEQLDQRYLLVPEKVKDAYLVHLIQRFQDEHEDWSIIIFTNTCKTCQILCMMLRKFSFPTVALHSMMKQKERFAALAKFKSSIYRILIATDVASRGLDIPTVQVVINHNTPGLPKIYIHRVGRTARAGRQGQAITLVTQYDIHLVHAIEEQIKKKLEEFSVEEAEVLQILTQVNVVRRECEIKLEAAHFDEKKEINKRKQLILEGKDPDLEAKRKAELAKIKQKNRRFKEKVEETLKRQKAGRAGHKGRPPRTPSGSHSGPVPSQGLV | 3.17 | 1.77
−0.05 | −0.01 | −0.03 | SMC1A (protein, UniProt Q14683 1-1233, looked up) Structural maintenance of …: MGFLKLIEIENFKSYKGRQIIGPFQRFTAIIGPNGSGKSNLMDAISFVLGEKTSNLRVKTLRDLIHGAPVGKPAANRAFVSMVYSEEGAEDRTFARVIVGGSSEYKINNKVVQLHEYSEELEKLGILIKARNFLVFQGAVESIAMKNPKERTALFEEISRSGELAQEYDKRKKEMVKAEEDTQFNYHRKKNIAAERKEAKQEKEEADRYQRLKDEVVRAQVQLQLFKLYHNEVEIEKLNKELASKNKEIEKDKKRMDKVEDELKEKKKELGKMMREQQQIEKEIKEKDSELNQKRPQYIKAKENTSHKIKKLEAAKKSLQNAQKHYKKRKGDMDELEKEMLSVEKARQEFEERMEEESQSQGRDLTLEENQVKKYHRLKEEASKRAATLAQELEKFNRDQKADQDRLDLEERKKVETEAKIKQKLREIEENQKRIEKLEEYITTSKQSLEEQKKLEGELTEEVEMAKRRIDEINKELNQVMEQLGDARIDRQESSRQQRKAEIMESIKRLYPGSVYGRLIDLCQPTQKKYQIAVTKVLGKNMDAIIVDSEKTGRDCIQYIKEQRGEPETFLPLDYLEVKPTDEKLRELKGAKLVIDVIRYEPPHIKKALQYACGNALVCDNVEDARRIAFGGHQRHKTVALDGTLFQKSGVISGGASDLKAKARRWDEKAVDKLKEKKERLTEELKEQMKAKRKEAELRQVQSQAHGLQMRLKYSQSDLEQTKTRHLALNLQEKSKLESELANFGPRINDIKRIIQSREREMKDLKEKMNQVEDEVFEEFCREIGVRNIREFEEEKVKRQNEIAKKRLEFENQKTRLGIQLDFEKNQLKEDQDKVHMWEQTVKKDENEIEKLKKEEQRHMKIIDETMAQLQDLKNQHLAKKSEVNDKNHEMEEIRKKLGGANKEMTHLQKEVTAIETKLEQKRSDRHNLLQACKMQDIKLPLSKGTMDDISQEEGSSQGEDSVSGSQRISSIYAREALIEIDYGDLCEDLKDAQAEEEIKQEMNTLQQKLNEQQSVLQRIAAPNMKAMEKLESVRDKFQETSDEFEAARKRAKKAKQAFEQIKKERFDRFNACFESVATNIDEIYKALSRNSSAQAFLGPENPEEPYLDGINYNCVAPGKRFRPMDNLSGGEKTVAALALLFAIHSYKPAPFFVLDEIDAALDNTNIGKVANYIKEQSTCNFQAIVISLKEEFYTKAESLIGVYPEQGDCVISKVLTFDLTKYPDANPNPNEQ | 1.31 | 1.83
−0.27 | 0.13 | −0.07 | GTPBP1 (protein, UniProt O00178 1-669, looked up) GTP-binding protein 1: MATERSRSAMDSPVPASMFAPEPSSPGAARAAAAAARLHGGFDSDCSEDGEALNGEPELDLTSKLVLVSPTSEQYDSLLRQMWERMDEGCGETIYVIGQGSDGTEYGLSEADMEASYATVKSMAEQIEADVILLRERQEAGGRVRDYLVRKRVGDNDFLEVRVAVVGNVDAGKSTLLGVLTHGELDNGRGFARQKLFRHKHEIESGRTSSVGNDILGFDSEGNVVNKPDSHGGSLEWTKICEKSTKVITFIDLAGHEKYLKTTVFGMTGHLPDFCMLMVGSNAGIVGMTKEHLGLALALNVPVFVVVTKIDMCPANILQETLKLLQRLLKSPGCRKIPVLVQSKDDVIVTASNFSSERMCPIFQISNVTGENLDLLKMFLNLLSPRTSYREEEPAEFQIDDTYSVPGVGTVVSGTTLRGLIKLNDTLLLGPDPLGNFLSIAVKSIHRKRMPVKEVRGGQTASFALKKIKRSSIRKGMVMVSPRLNPQASWEFEAEILVLHHPTTISPRYQAMVHCGSIRQTATILSMDKDCLRTGDKATVHFRFIKTPEYLHIDQRLVFREGRTKAVGTITKLLQTTNNSPMNSKPQQIKMQSTKKGPLTKRDEGGPSGGPAVGAPPPGDEASSVGAGQPAASSNLQPQPKPSSGGRRRGGQRHKVKSQGACVTPASGC | −0.64 | 1.80
